Measured values reported in publication PMC4484258, “Identification of BST-2/tetherin-induced hepatitis B virus restriction and hepatocyte-specific BST-2 inactivation” (Scientific Reports, 2015).

Molecular target: HBV enveloped particles (HBsAg) released from cells transfected with the pCMV ayw HBV proviral construct (hepatitis B virus (ayw), UniProt P03138-1 1-389; P03138-2 1-281; P03138-3 1-226)
Assay: cell-based or functional assay

Chain of HBV enveloped particles (HBsAg) released from cells transfected with the pCMV ayw HBV proviral construct (P03138 whole entry, chain 1 of 3): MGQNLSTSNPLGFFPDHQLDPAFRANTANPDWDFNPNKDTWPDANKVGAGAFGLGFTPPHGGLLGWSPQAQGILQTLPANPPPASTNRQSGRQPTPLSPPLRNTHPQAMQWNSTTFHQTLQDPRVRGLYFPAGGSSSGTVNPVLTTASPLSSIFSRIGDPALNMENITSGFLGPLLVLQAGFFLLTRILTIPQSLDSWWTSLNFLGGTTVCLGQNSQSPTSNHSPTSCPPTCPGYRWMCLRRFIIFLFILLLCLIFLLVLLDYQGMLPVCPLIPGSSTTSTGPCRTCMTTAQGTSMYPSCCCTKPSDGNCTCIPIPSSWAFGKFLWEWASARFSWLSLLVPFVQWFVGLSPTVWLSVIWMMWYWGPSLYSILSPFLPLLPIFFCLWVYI
Chain of HBV enveloped particles (HBsAg) released from cells transfected with the pCMV ayw HBV proviral construct (P03138 109-389, chain 2 of 3): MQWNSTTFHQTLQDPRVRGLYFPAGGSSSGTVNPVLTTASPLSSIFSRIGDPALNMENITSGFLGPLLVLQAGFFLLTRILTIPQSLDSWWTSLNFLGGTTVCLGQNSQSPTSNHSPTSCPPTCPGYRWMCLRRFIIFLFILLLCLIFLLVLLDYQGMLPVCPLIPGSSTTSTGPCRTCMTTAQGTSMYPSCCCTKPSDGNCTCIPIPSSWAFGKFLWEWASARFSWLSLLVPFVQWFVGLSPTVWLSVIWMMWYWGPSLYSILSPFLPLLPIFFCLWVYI
Chain of HBV enveloped particles (HBsAg) released from cells transfected with the pCMV ayw HBV proviral construct (P03138 164-389, chain 3 of 3): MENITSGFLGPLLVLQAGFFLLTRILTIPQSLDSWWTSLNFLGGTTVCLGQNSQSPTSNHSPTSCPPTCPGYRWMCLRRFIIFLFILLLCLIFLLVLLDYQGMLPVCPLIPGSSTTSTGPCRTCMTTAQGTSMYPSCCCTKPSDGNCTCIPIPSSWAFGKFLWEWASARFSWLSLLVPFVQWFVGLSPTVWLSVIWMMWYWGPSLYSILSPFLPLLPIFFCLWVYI

B1: BST-2 with an internal HA tag (BST-2 IHA), wild type (natural protein)
chain: MASTSYDYCRVPMEDGDKRCKLLLGIGILVLLIIVILGVPLIIFTIKANSEACRDGLRAVMECRNVTHLLQQELTEAQKGFQDVEAQAATCNHTVMALMASLDAEKAQGQKKVEELEGEITTLNHKLQDASAEVERLRRENQVLSVRIADKKYYPSSQDSS
  BST-2-induced NF-κB signaling (pNF-κB-Luc reporter in 293T cells) in the presence of HBV expression: ~10 fold
